Measured values: patent publication US20220395548A1 (MOREHOUSE SCHOOL OF MEDICINE, published 2022)

Assays:
[1] = target: T1, purified HIV-1 gp120 (gp120-IIIB, Immuno Dx) (HIV-1 (IIIB), UniProt P04578 33-511); test: SPR (Biacore T200), gp120 amine-coupled to CM5 chip, MoMo30 flowed over; 1:1 model fit; three independent measurements in triplicate
T1 construct: domain: gp120; also called HIV gp120; purified gp120

[2] = target: gp120 of HIV-1NL4-3 (on virus particles) (HIV-1 (NL4-3)); test: cell-based or functional assay

B1: MoMo30 protein from Momordica balsamina (purified from leaf extract, 30 kDa cutoff retentate) (other)
chain: GGIATYWGQDTREGRLTAACATGKFQIINIGFLSTFGNGRPPQVNLTRHCSPISNGCRNVSVGVLNCRNDGVKVMLSIGGPHGSYSLSSAAEAIDLADYIWNNFLGGRSTSLRPFGDVPLDGVDFRIERGQFSHYYTMVARRLHDYGRQCSRKVYLTAAPGCRFPDKYLTELLHTGLFDYVWVRFFDDRQCQYNSVNPSGFWWSWMRWINSIPARKFYVGIPASEEAGDGYVAPEVLIKEVLPFTKKFTNYGGVMLFDLSNDVQTNYSSIISNRV
notes: also called 30 kDa MoMo protein; hevamine A-related MoMo30 protein
Binder B1 has a Kd [1] of 6 µM, a koff [1] of 0.00242 s⁻¹ and a kon [1] of 400 M⁻¹ s⁻¹. For the same binder, the “IC50 of inhibition of HIV-1NL4-3 infectivity, MAGI cell assay” value [2] was 0.0028 µM.
